Data reported in patent US20250327097A1, “ORGANISMS PRODUCING LESS CROTONIC ACID” (Global Bioenergies, priority 2021, published 2025).
Positions count from the first letter of the chain named. Names may count otherwise.

B1: I283T-N285P-N287T-Q290E-S322T-N388M-K394R-i421aT-C430A-L432F-L434W-S436N-dG462 (protein)
chain: MFLKSLREQINLLKRQGDLRIINRPVDSYLEAAAIIRRSTETKAPVPLMTNIKGYPGCSIVGGLAALSSNPEYPLSRVAMSLGLSTTASAQSIVQYLIDGLKKTPYLPVEIDSNSAPCKQNILRGEDASLAHFPIPQVHQHDGNRYVNTWGVFIVESPDGQWCNWSIQRVQYLNDRQMIALVFPSQHISDIWEEWVKIGKPMPYALVQGCEPIVPYIAGLPLLERNVNEAEYIGALYGKGIEVVKCETHDLRVPASSEVVIEGYFAITREGVEGPFGEFAGYTPPETSLEPILSITAISWQDDPIWPVVAEGKPVDEYHTCTGIGDAAAIQNVLLTANLPVSFVWVPLYSACHLMIVSINRHWRQTHPDLTSEQLTKKVGDVIHQTRMSIKLPRIVVLDDDVDPADTESLLWALATRIHPERKRYFYESAIFPWLNCYSEEERHNRKGKRVIIDALLPENHGAISSFDYAYPDDIKQRVLMHWETDFSHD
B2: I283T-N285P-N287T-Q290E-S322T-N388M-K394R-i421aP-C430A-L432F-L434W-S436N-dG462 (protein)
chain: B1 chain
B3: I283T-N285P-N287T-Q290E-S322T-N388M-K394R-i429aN-C430A-L432F-L434W-S436N-dG462 (protein)
chain: B1 chain
B4: I283T-N285P-N287T-Q290E-S322T-N388M-K394R-C430A-i430aQ-L432F-L434W-S436N-dG462 (protein)
chain: B1 chain
B5: S322T-N388M-K394R-C430N-L432F-L434W-S436N (protein)
chain: B1 chain with T283I, P285N, T287N, E290Q, A430N
B6: I283T-N285P-N287T-Q290E-S322T-N388M-K394R-C430A-i430aR-L432F-L434W-S436N-dG462 (protein)
chain: B1 chain
B7: I283T-N285P-N287T-Q290E-S322T-N388M-K394R-i426aL-C430A-L432F-L434W-S436N-dG462 (protein)
chain: B1 chain
B8: N388M-K394R-S429D-C430N-L432F-L434W-S436N (protein)
chain: B1 chain with T283I, P285N, T287N, E290Q, T322S, S429D, A430N
B9: I283T-N285P-N287T-Q290E-S322T-N388M-K394R-i424aD-C430A-L432F-L434W-S436N-dG462 (protein)
chain: B1 chain
B10: I283T-N285P-N287T-Q290E-S322T-N388M-K394R-i424aL-C430A-L432F-L434W-S436N-dG462 (protein)
chain: B1 chain
B11: I283T-N285P-N287T-Q290E-S322T-N388M-K394R-i421aI-C430A-L432F-L434W-S436N-dG462 (protein)
chain: B1 chain
B12: I283T-N285P-N287T-Q290E-S322T-N388M-K394R-i421aE-C430A-L432F-L434W-S436N-dG462 (protein)
chain: B1 chain
B13: I283T-N285P-N287T-Q290E-S322T-N388M-K394R-i424aA-C430A-L432F-L434W-S436N-dG462 (protein)
chain: B1 chain
B14: I283T-N285P-N287T-Q290E-S322T-N388M-K394R-i424aW-C430A-L432F-L434W-S436N-dG462 (protein)
chain: B1 chain
B15: I283T-N285P-N287T-Q290E-S322T-N388M-K394R-i421aS-C430A-L432F-L434W-S436N-dG462 (protein)
chain: B1 chain
B16: I283T-N285P-N287T-Q290E-S322T-N388M-K394R-C430A-i430aS-L432F-L434W-S436N-dG462 (protein)
chain: B1 chain
B17: I283T-N285P-N287T-Q290E-S322T-N388M-K394R-i424aS-C430A-L432F-L434W-S436N-dG462 (protein)
chain: B1 chain
B18: I283T-N285P-N287T-Q290E-S322T-N388M-K394R-i421aR-C430A-L432F-L434W-S436N-dG462 (protein)
chain: B1 chain
B19: I283T-N285P-N287T-Q290E-S322T-N388M-K394R-C430A-i430aG-L432F-L434W-S436N-dG462 (protein)
chain: B1 chain
B20: I283T-N285P-N287T-Q290E-S322T-N388M-K394R-C430A-i430aN-L432F-L434W-S436N-dG462 (protein)
chain: B1 chain
B21: I283T-N285P-N287T-Q290E-S322T-N388M-K394R-C430A-i430aC-L432F-L434W-S436N-dG462 (protein)
chain: B1 chain
B22: I283T-N285P-N287T-Q290E-S322T-N388M-K394R-C430A-i430aL-L432F-L434W-S436N-dG462 (protein)
chain: B1 chain
B23: I283T-N285P-N287T-Q290E-S322T-N388M-K394R-C430A-i430aI-L432F-L434W-S436N-dG462 (protein)
chain: B1 chain

test system: 3-methylcrotonic acid; type: biochemical, Yersinia frederiksenii; set-up: key: “+” representing a low increase in activity; “++++” representing a high increase in activity

| Molecule | Activity relative to WT |
| --- | --- |
| B1 | ++++ |
| B2 | ++++ |
| B3 | ++++ |
| B4 | ++++ |
| B5 | + |
| B6 | ++++ |
| B7 | ++++ |
| B8 | + |
| B9 | ++++ |
| B10 | ++++ |
| B11 | ++++ |
| B12 | ++++ |
| B13 | ++++ |
| B14 | ++++ |
| B15 | ++++ |
| B16 | ++++ |
| B17 | ++++ |
| B18 | ++++ |
| B19 | ++++ |
| B20 | ++++ |
| B21 | ++++ |
| B22 | ++++ |
| B23 | ++++ |
